From PMC2829314 come the findings set out here.

The assay concerns the target LRRTM2-mVenus (full-length LRRTM2 mVenus-fusion protein) (UniProt O43300). The experiment in a line: saturation binding to cells.
Chain of UniProt O43300 (O43300 34-516): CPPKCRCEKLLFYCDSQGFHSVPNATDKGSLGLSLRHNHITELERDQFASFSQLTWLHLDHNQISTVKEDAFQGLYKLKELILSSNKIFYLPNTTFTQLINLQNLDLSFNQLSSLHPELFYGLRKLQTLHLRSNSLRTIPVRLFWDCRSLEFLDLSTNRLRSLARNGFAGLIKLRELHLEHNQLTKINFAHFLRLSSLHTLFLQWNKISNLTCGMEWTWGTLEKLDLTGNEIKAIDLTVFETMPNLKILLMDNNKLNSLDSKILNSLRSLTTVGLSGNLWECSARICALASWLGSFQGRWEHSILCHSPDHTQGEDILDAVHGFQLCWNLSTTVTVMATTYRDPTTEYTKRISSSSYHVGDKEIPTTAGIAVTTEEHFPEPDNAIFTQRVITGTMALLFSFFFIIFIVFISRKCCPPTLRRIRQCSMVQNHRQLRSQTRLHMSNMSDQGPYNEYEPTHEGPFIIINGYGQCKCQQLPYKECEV

For orientation: Kd means the free concentration of one partner at which half of the binding sites on the other are occupied at equilibrium, for simple one-to-one binding. Take “IgNrx1β^SS4− (Ig-fusion protein of neurexin-1β lacking an insert in splice site #4) (Fc fusion)”: the equilibrium dissociation constant (Kd) worked out at 5.83 nM.
